According to US20230407373A1 (priority 2020, published 2023):

B1: HNRNPA1 (protein, UniProt P09651 1-372, looked up)
Heterogeneous nuclear …: MSKSESPKEPEQLRKLFIGGLSFETTDESLRSHFEQWGTLTDCVVMRDPNTKRSRGFGFVTYATVEEVDAAMNARPHKVDGRVVEPKRAVSREDSQRPGAHLTVKKIFVGGIKEDTEEHHLRDYFEQYGKIEVIEIMTDRGSGKKRGFAFVTFDDHDSVDKIVIQKYHTVNGHNCEVRKALSKQEMASASSSQRGRSGSGNFGGGRGGGFGGNDNFGRGGNFSGRGGFGGSRGGGGYGGSGDGYNGFGNDGGYGGGGPGYSGGSRGYGSGGQGYGNQGSGYGGSGSYDSYNNGGGGGFGGGSGSNFGGGGSYNDFGNYNNQSSNFGPMKGGNFGGRSSGPYGGGGQYFAKPRNQGGYGGSSSSSSYGSGRRF
B2: SFPQ: host protein, UniProt P23246 (protein, UniProt P23246 1-707, looked up)
Splicing factor, proline- and …: MSRDRFRSRGGGGGGFHRRGGGGGRGGLHDFRSPPPGMGLNQNRGPMGPGPGQSGPKPPIPPPPPHQQQQQPPPQQPPPQQPPPHQPPPHPQPHQQQQPPPPPQDSSKPVVAQGPGPAPGVGSAPPASSSAPPATPPTSGAPPGSGPGPTPTPPPAVTSAPPGAPPPTPPSSGVPTTPPQAGGPPPPPAAVPGPGPGPKQGPGPGGPKGGKMPGGPKPGGGPGLSTPGGHPKPPHRGGGEPRGGRQHHPPYHQQHHQGPPPGGPGGRSEEKISDSEGFKANLSLLRRPGEKTYTQRCRLFVGNLPADITEDEFKRLFAKYGEPGEVFINKGKGFGFIKLESRALAEIAKAELDDTPMRGRQLRVRFATHAAALSVRNLSPYVSNELLEEAFSQFGPIERAVVIVDDRGRSTGKGIVEFASKPAARKAFERCSEGVFLLTTTPRPVIVEPLEQLDDEDGLPEKLAQKNPMYQKERETPPRFAQHGTFEYEYSQRWKSLDEMEKQQREQVEKNMKDAKDKLESEMEDAYHEHQANLLRQDLMRRQEELRRMEELHNQEMQKRKEMQLRQEEERRRREEEMMIRQREMEEQMRRQREESYSRMGYMDPRERDMRMGGGGAMNMGDPYGSGGQKFPPLGGGGGIGYEANPGVPPATMSGSMMGSDMRTERFGQGGAGPVGGQGPRGMGPGTPAGYGRGREEYEGPNKKPRF
B3: HNRNPL: host protein, UniProt P14866 (protein, UniProt P14866 1-589, looked up)
Heterogeneous nuclear …: MSRRLLPRAEKRRRRLEQRQQPDEQRRRSGAMVKMAAAGGGGGGGRYYGGGSEGGRAPKRLKTDNAGDQHGGGGGGGGGAGAAGGGGGGENYDDPHKTPASPVVHIRGLIDGVVEADLVEALQEFGPISYVVVMPKKRQALVEFEDVLGACNAVNYAADNQIYIAGHPAFVNYSTSQKISRPGDSDDSRSVNSVLLFTILNPIYSITTDVLYTICNPCGPVQRIVIFRKNGVQAMVEFDSVQSAQRAKASLNGADIYSGCCTLKIEYAKPTRLNVFKNDQDTWDYTNPNLSGQGDPGSNPNKRQRQPPLLGDHPAEYGGPHGGYHSHYHDEGYGPPPPHYEGRRMGPPVGGHRRGPSRYGPQYGHPPPPPPPPEYGPHADSPVLMVYGLDQSKMNCDRVFNVFCLYGNVEKVKFMKSKPGAAMVEMADGYAVDRAITHLNNNFMFGQKLNVCVSKQPAIMPGQSYGLEDGSCSYKDFSESRNNRFSTPEQAAKNRIQHPSNVLHFFNAPLEVTEENFFEICDELGVKRPSSVKVFSGKSERSSSGLLEWESKSDALETLGFLNHYQMKNPNGPYPYTLKLCFSTAQHAS
B4: SERBP1 (protein, UniProt Q8NC51 2-408, looked up)
SERPINE1 mRNA-binding protein …: PGHLQEGFGCVVTNRFDQLFDDESDPFEVLKAAENKKKEAGGGGVGGPGAKSAAQAAAQTNSNAAGKQLRKESQKDRKNPLPPSVGVVDKKEETQPPVALKKEGIRRVGRRPDQQLQGEGKIIDRRPERRPPRERRFEKPLEEKGEGGEFSVDRPIIDRPIRGRGGLGRGRGGRGRGMGRGDGFDSRGKREFDRHSGSDRSSFSHYSGLKHEDKRGGSGSHNWGTVKDELTESPKYIQKQISYNYSDLDQSNVTEETPEGEEHHPVADTENKENEVEEVKEEGPKEMTLDEWKAIQNKDRAKVEFNIRKPNEGADGQWKKGFVLHKSKSEEAHAEDSVMDHHFRKPANDITSQLEINFGDLGRPGRGGRGGRGGRGRGGRPNRGSRTDKSSASAPDVDDPEAFPALA
B5: HNRNPDL (protein, UniProt O14979 1-420, looked up)
Heterogeneous nuclear …: MEVPPRLSHVPPPLFPSAPATLASRSLSHWRPRPPRQLAPLLPSLAPSSARQGARRAQRHVTAQQPSRLAGGAAIKGGRRRRPDLFRRHFKSSSIQRSAAAAAATRTARQHPPADSSVTMEDMNEYSNIEEFAEGSKINASKNQQDDGKMFIGGLSWDTSKKDLTEYLSRFGEVVDCTIKTDPVTGRSRGFGFVLFKDAASVDKVLELKEHKLDGKLIDPKRAKALKGKEPPKKVFVGGLSPDTSEEQIKEYFGAFGEIENIELPMDTKTNERRGFCFITYTDEEPVKKLLESRYHQIGSGKCEIKVAQPKEVYRQQQQQQKGGRGAAAGGRGGTRGRGRGQGQNWNQGFNNYYDQGYGNYNSAYGGDQNYSGYGGYDYTGYNYGNYGYGQGYADYSGQQSTYGKASRGGGNHQNNYQPY

The molecules below were run on SARS-CoV-2 gRNA. Details: […]; LC-MS/MS; Probe I sample (first 199 lines of Table 2).
Type: binding

| Molecule | target (unweighted spectral count of the protein in the RNP capture) |
| --- | --- |
| B1 | 97 |
| B2 | 50 |
| B3 | 43 |
| B4 | 17 |
| B5 | 25 |

What follows are molecules tested on HCoV-OC43 gRNA and sgRNA. Details: 36 hpi; type n_36_v; tested against no-probe control; FDR<10%.
Type: binding

| Molecule | target (unweighted spectral count, OC43 Probe II capture) |
| --- | --- |
| B1 | 39 |
| B2 | 36 |
| B3 | 42 |
| B4 | 15 |

Same assay, conditions: OC43 Probe II, 12 hpi (type n_12_v), infected cells; tested against no-probe control

| Molecule | target (unweighted spectral count) |
| --- | --- |
| B1 | 24 |
| B3 | 12 |
| B5 | 6 |

Same assay, conditions: OC43 Probe II, 24 hpi (type n_24_v), infected cells; tested against no-probe control

| Molecule | target (unweighted spectral count) |
| --- | --- |
| B1 | 31 |
| B2 | 16 |
| B3 | 25 |
| B4 | 6 |
| B5 | 9 |

Same assay, conditions: type n_48_v; 48 hpi; OC43 Probe II capture on infected cells

| Molecule | target (unweighted spectral count, OC43 Probe II) |
| --- | --- |
| B1 | 53 |
| B2 | 33 |
| B3 | 46 |
| B4 | 18 |
| B5 | 18 |

Same assay, conditions: type n_48_v; 48 hpi; no-probe control on infected cells

| Molecule | background (unweighted spectral count, no-probe control) |
| --- | --- |
| B1 | 7 |
| B2 | 7 |
| B3 | 2 |
| B4 | 4 |
| B5 | 3 |

Same assay, conditions: type s_36_m; HCoV-OC43-infected HCT-8 cells, 36 hpi, Probe II

| Molecule | target (spectral count) |
| --- | --- |
| B2 | 36 |
| B3 | 42 |

Same assay, conditions: type s_36_m; uninfected-probe control, 36 hpi, Probe II

| Molecule | background (spectral count) |
| --- | --- |
| B2 | 3 |
| B3 | 5 |

Each molecule was assayed on gRNA of HCoV-OC43. Details: type g_36_m; HCoV-OC43-infected HCT-8 cells, 36 hpi, Probe I.
Type: binding

| Molecule | target (spectral count) |
| --- | --- |
| B2 | 33 |
| B3 | 59 |

Same assay, conditions: type g_36_m; uninfected-probe control, 36 hpi, Probe I

| Molecule | background (spectral count) |
| --- | --- |
| B2 | 7 |
| B3 | 6 |

Same assay, conditions: type n_48_v: 48 hours post-infection, infected cells, OC43 Probe I; unweighted spectral count

| Molecule | target (spectral count, OC43 Probe I RNP capture) |
| --- | --- |
| B1 | 82 |
| B2 | 39 |
| B4 | 19 |
| B5 | 17 |

Same assay, conditions: type n_48_v: 48 hours post-infection, no-probe control on infected cells

| Molecule | background (spectral count, no-probe control) |
| --- | --- |
| B1 | 7 |
| B2 | 7 |
| B4 | 4 |
| B5 | 3 |

What follows are molecules tested on SARS-CoV-2 gRNA and sgRNAs. Details: Probe II capture; […]; LC-MS/MS LFQ.
Type: binding

| Molecule | target (unweighted spectral count in RNP capture) |
| --- | --- |
| B1 | 74 |
| B2 | 38 |
| B4 | 30 |
| B5 | 25 |

Same assay, conditions: no-probe control pull-down, used as background for Probe II

| Molecule | background (unweighted spectral count in control) |
| --- | --- |
| B2 | 1 |
| B3 | 1 |
| B4 | 1 |
| B5 | 1 |
